Experimental data: patent US20090298765A1 (Takeda / Millennium, published 2009)
Starred links: 1 amine or outer side, 2 acyl side, 3 side chain; linkers in the order of their positions; H or OH if unused. Non-standard residues stand in square brackets, D forms with d. No end group written: not given here. Ala(2-Qui) = 2-quinolylalanine, O=C([C@H](Cc1ccc2ccccc2n1)N[*:1])[*:2]; Phe(3,4-Cl2) = N[C@@H](Cc1ccc(Cl)c(Cl)c1)C(=O)O; 1Nal = N[C@@H](Cc1cccc2ccccc12)C(=O)O; 2Nal = N[C@@H](Cc1ccc2ccccc2c1)C(=O)O; Arg(Me) = CNC(=N)NCCC[C@H](N)C(=O)O; Bta = N[C@@H](Cc1csc2ccccc12)C(=O)O; Cha = N[C@@H](CC1CCCCC1)C(=O)O; azaGly = NNC(=O)O

Tests used:
[1] = molecular target: T1, human OT7T175 (metastin receptor) (human, UniProt Q969F8 1-398); assay: cell-based or functional assay
[2] = molecular target: T1, human OT7T175 (metastin receptor); assay: cell-based or functional assay; remark: listed apart in the source
[3] = molecular target: T1, human OT7T175 (metastin receptor); assay: competition with Cy-5 metastin (40-54) on hOT7T175-CHO cells, FMAT

T1 sequence (Q969F8 whole entry L364H): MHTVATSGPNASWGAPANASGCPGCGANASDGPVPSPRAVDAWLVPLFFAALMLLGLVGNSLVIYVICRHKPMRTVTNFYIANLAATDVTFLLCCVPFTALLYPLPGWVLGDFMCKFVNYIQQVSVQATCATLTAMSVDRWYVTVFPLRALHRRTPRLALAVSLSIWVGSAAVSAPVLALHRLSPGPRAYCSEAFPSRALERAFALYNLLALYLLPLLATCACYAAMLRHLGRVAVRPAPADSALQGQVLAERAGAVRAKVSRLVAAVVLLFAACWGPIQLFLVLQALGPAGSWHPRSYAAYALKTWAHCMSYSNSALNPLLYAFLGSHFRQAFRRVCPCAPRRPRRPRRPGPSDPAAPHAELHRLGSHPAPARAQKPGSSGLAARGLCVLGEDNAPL

| Binder | Ca ion level-increasing activity (FLIPR) [1] | Ca ion level-increasing activity (FLIPR, 40 s) [2] | IC50 [3] |
| --- | --- | --- | --- |
| [dY]WNSFGL[Arg(Me)]F-NH2 (N-terminus assumed; SMILES CNC(=N)NCCC[C@H](NC(=O)[C@H](CC(C)C)NC(=O)CNC(=O)[C@H](Cc1ccccc1)NC(=O)[C@H](CO)NC(=O)[C@H](CC(N)=O)NC(=O)[C@H](Cc1c[nH]c2ccccc12)NC(=O)[C@H](N)Cc1ccc(O)cc1)C(=O)N[C@@H](Cc1ccccc1)C(N)=O, also called Compound No. 217) [des(1)-[D-Tyr2,Arg(Me)9]MS10] | 20 x Metastin (1-54) | 3.1 EC50/MS10 EC50 | 250 nM |
| [dY]TNSF[azaGly]L[Arg(Me)]F-NH2 (also called Compound No. 241) [des(1)-[D-Tyr2,Thr3,AzaGly7,Arg(Me)9]MS10] | 1 x Metastin (1-54) | 5.3 EC50/MS10 EC50 | 56 nM |
| [dY][dW]NSF[azaGly]L[Arg(Me)]F-NH2 (N-terminus assumed; SMILES CNC(=N)NCCC[C@H](NC(=O)[C@H](CC(C)C)NC(=O)NNC(=O)[C@H](Cc1ccccc1)NC(=O)[C@H](CO)NC(=O)[C@H](CC(N)=O)NC(=O)[C@@H](Cc1c[nH]c2ccccc12)NC(=O)[C@H](N)Cc1ccc(O)cc1)C(=O)N[C@@H](Cc1ccccc1)C(N)=O, also called Compound No. 242) [des(1)-[D-Tyr2,D-Trp3,AzaGly7,Arg(Me)9]MS10] | 2 x Metastin (1-54) | 1.4 EC50/MS10 EC50 | 70 nM |
| [dY]NWASFGL[Arg(Me)]F-NH2 (N-terminus assumed; SMILES CNC(=N)NCCC[C@H](NC(=O)[C@H](CC(C)C)NC(=O)CNC(=O)[C@H](Cc1ccccc1)NC(=O)[C@H](CO)NC(=O)[C@H](C)NC(=O)[C@H](Cc1c[nH]c2ccccc12)NC(=O)[C@H](CC(N)=O)NC(=O)[C@H](N)Cc1ccc(O)cc1)C(=O)N[C@@H](Cc1ccccc1)C(N)=O, also called Compound No. 210) [[D-Tyr1,Ala4,Arg(Me)9]MS10] | 1 x Metastin (1-54) | 9.3 EC50/MS10 EC50 | 730 nM |
| [dY]NWNAFGL[Arg(Me)]F-NH2 (N-terminus assumed; SMILES CNC(=N)NCCC[C@H](NC(=O)[C@H](CC(C)C)NC(=O)CNC(=O)[C@H](Cc1ccccc1)NC(=O)[C@H](C)NC(=O)[C@H](CC(N)=O)NC(=O)[C@H](Cc1c[nH]c2ccccc12)NC(=O)[C@H](CC(N)=O)NC(=O)[C@H](N)Cc1ccc(O)cc1)C(=O)N[C@@H](Cc1ccccc1)C(N)=O) [[D-Tyr1,Ala5,Arg(Me)9]MS10] | 10 x Metastin (1-54) | 1.1 EC50/MS10 EC50 | 36 nM |
| [dY]NVNSF[azaGly]L[Arg(Me)]F-NH2 (N-terminus assumed; SMILES CNC(=N)NCCC[C@H](NC(=O)[C@H](CC(C)C)NC(=O)NNC(=O)[C@H](Cc1ccccc1)NC(=O)[C@H](CO)NC(=O)[C@H](CC(N)=O)NC(=O)[C@@H](NC(=O)[C@H](CC(N)=O)NC(=O)[C@H](N)Cc1ccc(O)cc1)C(C)C)C(=O)N[C@@H](Cc1ccccc1)C(N)=O, also called Compound No. 234) [[D-Tyr1,Val3,AzaGly7,Arg(Me)9]MS10] | 1 x Metastin (1-54) |  | 47 nM |
| [dY]NWNSFGV[Arg(Me)]F-NH2 (also called Compound No. 213) [[D-Tyr1,Val8,Arg(Me)9]MS10] | 2 x Metastin (1-54) |  | 190 nM |
| [dY]N[1Nal]NSF[azaGly]L[Arg(Me)]F-NH2 (N-terminus assumed; SMILES CNC(=N)NCCC[C@H](NC(=O)[C@H](CC(C)C)NC(=O)NNC(=O)[C@H](Cc1ccccc1)NC(=O)[C@H](CO)NC(=O)[C@H](CC(N)=O)NC(=O)[C@H](Cc1cccc2ccccc12)NC(=O)[C@H](CC(N)=O)NC(=O)[C@H](N)Cc1ccc(O)cc1)C(=O)N[C@@H](Cc1ccccc1)C(N)=O, also called Compound No. 245) [[D-Tyr1,Nal(1)3,AzaGly7,Arg(Me)9]MS10] | 1 x Metastin (1-54) |  | 98 nM |
| [dY]N[2Nal]NSF[azaGly]L[Arg(Me)]F-NH2 (N-terminus assumed; SMILES CNC(=N)NCCC[C@H](NC(=O)[C@H](CC(C)C)NC(=O)NNC(=O)[C@H](Cc1ccccc1)NC(=O)[C@H](CO)NC(=O)[C@H](CC(N)=O)NC(=O)[C@H](Cc1ccc2ccccc2c1)NC(=O)[C@H](CC(N)=O)NC(=O)[C@H](N)Cc1ccc(O)cc1)C(=O)N[C@@H](Cc1ccccc1)C(N)=O, also called Compound No. 246) [[D-Tyr1,Nal(2)3,AzaGly7,Arg(Me)9]MS10] | 2 x Metastin (1-54) |  | 7.1 nM |
| [dY][2Nal]NSF[azaGly]L[Arg(Me)]F-NH2 (also called Compound No. 255) [des(1)-[D-Tyr2,Nal(2)3,AzaGly7,Arg(Me)9]MS10] | 1 x Metastin (1-54) |  | 33 nM |
| [dY]N[Cha]NS[Cha]GL[Arg(Me)]W-NH2 (N-terminus assumed; SMILES CNC(=N)NCCC[C@H](NC(=O)[C@H](CC(C)C)NC(=O)CNC(=O)[C@H](CC1CCCCC1)NC(=O)[C@H](CO)NC(=O)[C@H](CC(N)=O)NC(=O)[C@H](CC1CCCCC1)NC(=O)[C@H](CC(N)=O)NC(=O)[C@H](N)Cc1ccc(O)cc1)C(=O)N[C@@H](Cc1c[nH]c2ccccc12)C(N)=O, also called Compound No. 182) [[D-Tyr1,Cha3,6,Arg(Me)9,Trp10]MS10] | 5 x Metastin (1-54) |  | 98 nM |
| YNWNSFGLR[Bta]-NH2 (N-terminus assumed; SMILES CC(C)C[C@H](NC(=O)CNC(=O)[C@H](Cc1ccccc1)NC(=O)[C@H](CO)NC(=O)[C@H](CC(N)=O)NC(=O)[C@H](Cc1c[nH]c2ccccc12)NC(=O)[C@H](CC(N)=O)NC(=O)[C@@H](N)Cc1ccc(O)cc1)C(=O)N[C@@H](CCCNC(=N)N)C(=O)N[C@@H](Cc1csc2ccccc12)C(N)=O, also called Compound No. 189) [[Ala(3-Bzt)10]MS10] | 10 x Metastin (1-54) |  | 230 nM |
| [dY]N[Cha]NSF[azaGly]L[Arg(Me)]F-NH2 (N-terminus assumed; SMILES CNC(=N)NCCC[C@H](NC(=O)[C@H](CC(C)C)NC(=O)NNC(=O)[C@H](Cc1ccccc1)NC(=O)[C@H](CO)NC(=O)[C@H](CC(N)=O)NC(=O)[C@H](CC1CCCCC1)NC(=O)[C@H](CC(N)=O)NC(=O)[C@H](N)Cc1ccc(O)cc1)C(=O)N[C@@H](Cc1ccccc1)C(N)=O, also called Compound No. 190) [[D-Tyr1,Cha3,AzaGly7,Arg(Me)9]MS10] | 10 x Metastin (1-54) |  | 12 nM |
| YNWNSFGLR[Phe(3,4-Cl2)]-NH2 (also called Compound No. 199) [[Phe(3,4Cl2)10]MS10] | 3 x Metastin (1-54) |  | 470 nM |
| YNWNSFGLR[Ala(2-Qui)]-NH2 (N-terminus assumed; SMILES CC(C)C[C@H](NC(=O)CNC(=O)[C@H](Cc1ccccc1)NC(=O)[C@H](CO)NC(=O)[C@H](CC(N)=O)NC(=O)[C@H](Cc1c[nH]c2ccccc12)NC(=O)[C@H](CC(N)=O)NC(=O)[C@@H](N)Cc1ccc(O)cc1)C(=O)N[C@@H](CCCNC(=N)N)C(=O)N[C@@H](Cc1ccc2ccccc2n1)C(N)=O, also called Compound No. 201) [[Ala(2-Qui)10]MS10] | 1 x Metastin (1-54) |  | 820 nM |
| YNWNSXGLRF (D-Tyr1; Cha6; Arg(Me)9; C-terminal amide, also called Compound No. 203) [[D-Tyr1,Cha6,Arg(Me)9]MS10] | 10 x Metastin (1-54) |  | 37 nM |
| [dY][dW]NSFGL[Arg(Me)]F-NH2 (also called Compound No. 224) [des(1)-[D-Tyr2,D-Trp3,Arg(Me)9]MS10] | 2 x Metastin (1-54) |  | 140 nM |
